According to patent US20220017608A1:

Assays:
Assay in all cases: Biacore 3000, 25 °C, alanine scan: N-biotinylated peptide on SA chip, G1 Fab titrated; fold loss versus wild-type 25-37 fragment
G33A = biological target: T1, G33A
T1 sequence (peptide, N-terminal biotin): NNFVPTNVASKAF

F37A = biological target: T2, F37A
T2 sequence (peptide, N-terminal biotin): NNFVPTNVGSKAA

S34A = biological target: T3, S34A
T3 sequence (peptide, N-terminal biotin): NNFVPTNVGAKAF

B1: Fab fragments of antibody G1 (Fab, V domains shown)
VH: EVQLVESGGGLVQPGGSLRLSCAASGFTFSNYWISWVRQAPGKGLEWVAEIRSESDASATHYAEAVKGRFTISRDNAKNSLYLQMNSLRAEDTAVYYCLAYFDYGLAIQNYWGQGTLVTVSS
VL: EIVLTQSPATLSLSPGERATLSCKASKRVTTYVSWYQQKPGQAPRLLIYGASNRYLGIPARFSGSGSGTDFTLTISSLEPEDFAVYYCSQSYNYPYTFGQGTKLEIK
Fold loss in affinity (G33A): 504 fold
Fold loss in affinity (F37A): 339 fold
Fold loss in affinity (S34A): 10.9 fold
